The nature of the data set: soluble on expression in E. coli; label from the status in PepcDB or PDB records.
In the case of “MAQLFFKYGAMNSGKTIEILKVAHNYEEQDKPVVLMTSGLDTRDGVGKVSSRIGLRRDAIPIFEETNVFDLINDLSYKPFCVLVDECQFLNKHHVIEFARIVDELDIPVMAFGLKNDFRNELFEGSKYLLLYADKLEELKTICWFCHKKATMNLHYIDGNPVYEGDQVQIGGNEAYYPVCRKHYFHPKTVNEEQLEHHHHHH”, the “soluble on expression in E. coli” value is recorded as “soluble”. Under “MAQQGVFTLPANTSFGVTAFANAANTQTIQVLVDNVVKATFTGSGTSDKLLGSQVLNSGSGAIKIQVSVNGKPSDLVSNQTILANKLNFAMVGSEDGTDNDYNDGIAVLNWPLG” stands “soluble”; under “MARATLACMEKITGAERSPEARDSAGAVGGADGREALVARVRAGERIKYLCFWGHRPLPDGRLGPSCLSQWWPSPFTVAGVEYATAEHWMMAGKARLFGDPEAERRVLAAAHPAGAKKAGRLVRGFDEAVWERERFRIVVEGSVHKFASDPALRVFLLATGERVLVEASPVDRVWGIGLAADDEAAVDPERWRGPNLLGFALMAARERLRAGELEHHHHHH”, “not soluble”. To “MARIKLIDETTDLSQVRRPIGWDLEVNGVPYDVYRIDGYNHTLGGKFSENCYWACPAGKKPTYKNLIEFNGDAPTWGIVFDRSNYTKTKWDETSVECNGICWITRNGKKFYSIPARYMDYGLAKAQYILVKLLEECPLWLSERNWKEKAIGRKIWYENQPAKIIRINEENELWIEPDGIPVFKAPAHWDHDDYSDYENGLRVDLLSPNIYWFRD” belongs “not soluble”.

Consider “MARKKQFDYFGELNQLATNAYEAAKVLQEIVDNYSLENLVKKSEAIHQLEKENDEIVRKILNELYISFITPIDREDIVDITDHLDNIIDSINSLSYLLDHLVVEEMIAPALELTAYIVKATEGVKSATKEFAKFKNSKTLVSLIDEVNTIESQGDKLYSSAMKDLMTNEKDLLKVIKWKDVYDQLERTINDCESAVNIIVGIVIKNTLEHHHHHH”, for which the “soluble on expression in E. coli” value is “soluble”.

As for “MARLTVHTLETAPEAAKARVEAVLQNNGFIPNLIGVLSNAPEALAFYQEVGKLNAANSLTAGEVEVIQIIAARTNQCGFCVAGHTKLATLKKLLSEQSVKAARALAAGEFDDAKLGALAAFTQAVMAKKGAVSDEELKAFFDAGYNQQQAVEVVMGVALATLCNYVNNLGQTEINPELQAYA”, the “soluble on expression in E. coli” value is “soluble”. Under “MARTREFDTEAAVSRAMELFWTRGYEATSVRDLTGHLGIGQGSLYAAFGDKDGLYRAALEHYRTTLAAAALRSLEEGTDARSAIRTMLVERIRIAVDDNGRGCLAVNAACERLPEDAATRRTVRDMQDAGRDALTEVLRVAAERGEIAKRHDPHTLAAFLVTFLNGLLVSSKITPDVRALEPLVEVALAALD” stands “not soluble”; under “MASECVDENSKPWMRVTVSCALLPEVLKQGAEAGGAVKLTGNPSEQSSEDGSHHCSSNFQNSPVTSDLSVLDASPCGLPAEKRKPPHRETSISSNASQSEREIAPTATRRLSPKPETATLSPSESSSLTAATLSNCSSRVQSSSDEKIGNCPSTSACSVSQTTASSEAPSWLSSGASTAQVLSERRGSIEEQPAPETSAAAVRVSRSSSDSENLFASCSASLRNLEPDDISDPENEAAAPACAETGASRAQDAAAVRADAENLGEGESHMETASTRAESLAKDAISSKVSRRGSAHTSSDASGQCQDALPSVGEGKPGEMNGREEDGEAEKPEASAESLQGSDGQANESEAPKPGGGRVDAKMRAKFKREFVRSWVDINRAPSWPPIKKNKYLSSDWKRVDLRTAAGEIRVETKKHRLFLNDLCFLFDGVYTQKSTLGRKAGLGLFCERPEGLHKGQIITEFVGWLVDRDLAESYRKQRTASHIVAVQKGFLYIDGAKEPAYGMGGGSFANDGSEFLGGPGNNAQFYHWFDDELGRTRVFLRATADIKNGEEIFVPYHKTYWVDNFEEQAENCPDAFKQRKLEQLRRRYKNPEFVHIPHREEVAMREREEAERRKRDKEESEKKKAAAKQPRCPVKRPCSAYLLFSVARRKELLKACGILSKGDDEPASQQVSESPEVPREGQRKRRASSASQAAAPVPAAANKRRKAEKDEPSSPEETKRGQVVAAAGLKRGAARPACVGDETAQKLAGWLAKDGAANVRTLCAELTREVAREWGNMRPEEKKPWEQLAEKEKIRYAKAVRTWREKLKKKKSGRETATRKRKVPCSRKGHGTEKGEKAGKVKPQADTSPREAAPEGTETRDHEDVQAGAKDRAATQKER”, “soluble”.

(Values after the DeepSol protein solubility set.)
